Key:
[1] = test system: human venous endothelial cells; assay: Release of mitogens from endothelial cells stimulated with factor Xa; conditioned media tested for mitogenic activity on 3T3 cells; assay type: cell-based; settings: for Mitogenic units of EC conditioned media: 1 unit = activity induced by 2 ng/ml PDGF, FXa 1 nM, ATS 5 nM, PDGF 2 ng/ml, 16 h
Experimental: Confluent primary cultures or subcultures (passages 1 and 2) of human venous endothelial cells (EC) were cultured in serum-free Dulbecco's Minimal Essential Medium (DMEM)+0.1% bovine serum albumin (BSA) in the presence of human or bovine factor Xa(1 nM) (Sigma Chemical Co., St. Louis, Mo.), antistasin (ATS) (0.5-5.0 nM), or both. Control cultures were untreated or received 2 ng/ml platelet-derived growth factor (PDGF) (Sigma Chemical Co., St. Louis, Mo.). After 16 hours incubation at 37° C., the conditioned media (CM) from the test and control cell cultures were collected and tested for mitogenic activity (MIT) using confluent NIH 3T3 cells (CCL 163, American Type Culture Collection, Rockville, Md.).
Primary cultures of EC derived from umbilical cord veins were prepared and grown according to a protocol provided to by Dr. Gwendolyn Stewart (Temple University Thrombosis Center, Phila., Pa.). After washing the lumen of the vein twice with DMEM, EC were dissociated with a solution containing 0.05% trypsin and 0.1% collagenase. Thirty minutes later, the venous content and the perfused DMEM (35 ml) was collected into a fifty ml centrifuge tube containing 3.5 ml of bovine serum and the mixture spun at 900 rpm for 10 minutes. The supernate was discarded and the cell pellet resuspended in 3.0 ml DMEM containing 20% fetal bovine serum (FBS) (heat inactivated at 56° C. for 30 minutes), 90 μg heparin per ml, 5 μg fibronectin per ml, and 60 μg endothelial growth factor per ml (cDMEM), and seeded into 35 mm tissue culture dishes. After 24 hours of incubation at 37 °C, 5% CO2, the culture was washed 3-4 times with DMEM and incubated 2-4 days until the cells were confluent. The monolayers were washed with phosphate buffered saline (PBS) and cultured in DMEM with 0.1% BSA in the presence and absence of 1 nM factor Xa, 5 nM antistasin, or a mixture of both. As positive and negative controls, separated monolayers were incubated with the medium plus 2 ng/ml PDGF or with the medium alone. After 16 hours of incubation at 37° C., conditioned media (CM) were collected, centrifuged at 4000×g for 10 minutes, and the supernate was collected and stored at 4° C. until use. The mitogenic activity of the CM was tested by measuring the incorporation of [^3 H] thymidine into cultures of Balb 3T3 cells. For this purpose, wells were seeded with 2×10^4 3T3 cells suspended in 1 ml DMEM with 10% FBS. Once confluent (5-7 days of culture), CM were added and cells incubated for 18 hours at 37° C. after which cultures were washed with warm DMEM, tritiated thymidine added (1 μCi/ml) and cells incubated for 4 hours at 37° C. After removing the medium, the culture was washed twice with cold 5% trichloroacetic acid (TCA), and lysed with 0.8 ml 0.25M NaOH. The lysate was transferred to vials with scintillation fluid and radioactivity monitored in a beta radiation counter.
One unit of mitogenic activity is defined as the mitogenic activity induced by 2 ng/ml PDGF. Each assay was performed in triplicate and the standard deviation was less than 10%.

3T3 cells = assay: Direct antistasin treatment of 3T3 cells, proliferation; assay type: cell-based
smooth muscle cells [2] = assay: Effect of antistasin and tick anticoagulant peptide on factor Xa induced mitogenesis of smooth muscle cells; assay type: cell-based, rat; settings: FIG. 2
Experimental: Primary smooth muscle cell cultures were prepared from the thoracic and abdominal aorta of 2-3 month old Wistar rats essentially using the procedure of Reilly, C. F. (1990) J. Cell Physiol. 142,342 (1990). After removing as much fat and adherent adventitia as possible with scissors and forceps, the tissue was finely minced, enzymatically dissociated with successive 37° C. incubations in HBSS containing collagenase (Sigma, 0.5 mg/ml for 15 min.), then elastase (Sigma, 0.125 mg/ml for 30 min.) and again collagenase (60 min.). […] Cells were grown in Dulbecco's Minimal Essential Medium (DMEM) containing 10% fetal bovine serum (FBS) with antibiotics. […] Using a monoclonal antibody to alpha actin (Sigma Chemical Company, St. Louis, Mo.), about 60-80% (preparation dependent) of these confluent cells stained positive for this smooth muscle cell marker. After 10 days in culture, the cells were dissociated with trypsinethylene diamine tetraacetate (EDTA), split 1:10 and subcultured in the above medium. At confluence the cells were transferred to DMEM containing 0.1 % FBS for a 24 hour period before using them for assay. […]
(§1) The prepared rat smooth muscle cells were seeded in Falcon 24 multiwell plates (10^5 cells/well) and cultured at 37° C., in a 5% CO2 atmosphere in 1 ml DMEM containing 10% FBS. […] The cells were washed twice with cold phosphate buffered saline (PBS), treated twice with 5% trichloroacetic acid (TCA) for 5 min., dissolved with 0.25N NaOH (0.4 ml) incubated at 37° C. for 60 min., mixed with 5 ml Ecolume (ICN Biomedicals, Costa Mesa, Calif.), and their radioactivity determined in a scintillation counter. […] Smooth muscle cell mitogenic activity produced by exogenous agents is expressed as % relative mitogenic activity which is defined as: [formula] […]
The effects of antistasin and tick anticoagulant peptide on factor Xa induced mitogenesis of smooth muscle cells were tested using the method shown in Example 4. […] At the end of the 24 hour incubation, ^3 H-thymidine incorporation into DNA was monitored and smooth muscle cell mitogenic activity was assessed as described in Example 4.

smooth muscle cells [3] = assay: Effect of factor Xa inhibitors on human protein S and bovine factor X induced smooth muscle cell mitogenesis; assay type: cell-based, rat; settings: FIG. 3
Experimental: Primary smooth muscle cell cultures were prepared from the thoracic and abdominal aorta of 2-3 month old Wistar rats essentially using the procedure of Reilly, C. F. (1990) J. Cell Physiol. 142,342 (1990). After removing as much fat and adherent adventitia as possible with scissors and forceps, the tissue was finely minced, enzymatically dissociated with successive 37° C. incubations in HBSS containing collagenase (Sigma, 0.5 mg/ml for 15 min.), then elastase (Sigma, 0.125 mg/ml for 30 min.) and again collagenase (60 min.). […] Cells were grown in Dulbecco's Minimal Essential Medium (DMEM) containing 10% fetal bovine serum (FBS) with antibiotics. […]
as §1

[4] = test system: rat aortic smooth muscle cells; assay: Mitogenic activity of blood coagulation factors on smooth muscle cells (3H-thymidine incorporation); assay type: cell-based, Wistar rats; settings: 24 h
Experimental: Primary smooth muscle cell cultures were prepared from the thoracic and abdominal aorta of 2-3 month old Wistar rats essentially using the procedure of Reilly, C. […] After removing as much fat and adherent adventitia as possible with scissors and forceps, the tissue was finely minced, enzymatically dissociated with successive 37° C. incubations in HBSS containing collagenase (Sigma, 0.5 mg/ml for 15 min.), then elastase (Sigma, 0.125 mg/ml for 30 min.) and again collagenase (60 min.). […] Cells were grown in Dulbecco's Minimal Essential Medium (DMEM) containing 10% fetal bovine serum (FBS) with antibiotics. […] Using a monoclonal antibody to alpha actin (Sigma Chemical Company, St. Louis, Mo.), about 60-80% (preparation dependent) of these confluent cells stained positive for this smooth muscle cell marker. After 10 days in culture, the cells were dissociated with trypsinethylene diamine tetraacetate (EDTA), split 1:10 and subcultured in the above medium. At confluence the cells were transferred to DMEM containing 0.1 % FBS for a 24 hour period before using them for assay. All smooth muscle cells used in these studies were from passages 1-4.
The prepared rat smooth muscle cells were seeded in Falcon 24 multiwell plates (10^5 cells/well) and cultured at 37° C., in a 5% CO2 atmosphere in 1 ml DMEM containing 10% FBS. […] At the end of the incubation, the cultures were washed twice with DMEM and pulsed for two hours in ^3 H-thymidine (1 μCi/ml) in DMEM containing 0.1% BSA. The cells were washed twice with cold phosphate buffered saline (PBS), treated twice with 5% trichloroacetic acid (TCA) for 5 min., dissolved with 0.25N NaOH (0.4 ml) incubated at 37° C. for 60 min., mixed with 5 ml Ecolume (ICN Biomedicals, Costa Mesa, Calif.), and their radioactivity determined in a scintillation counter. All assays were in triplicate. Error bars represent the standard error of the mean (S.E.M. with n=6 or more experiments). Smooth muscle cell mitogenic activity produced by exogenous agents is expressed as % relative mitogenic activity which is defined as: [formula] […]

[5] = test system: rat aortic smooth muscle cells; assay: Comparison of 3H-thymidine incorporation and cell proliferation in rat aortic smooth muscle cell cultures; assay type: cell-based; settings: 10 mM factor, 36 hours treatment
Experimental: Rat smooth muscle cells were incubated with different blood coagulation factors to determine ^3 H-thymidine incorporation and effect cell number. […] At the end of the incubation, half of the groups were pulsed with ^3 H-thymidine for two hours while their identically treated counterparts were dissociated with trypsin and the cells (smooth muscle cells on the basis of a reddish-brown staining pattern with Masson's trichome) were counted. Although there was not a direct correspondence between the per cent increase in thymidine incorporation and cell number, the increase in DNA synthesis correlated well with an increase in cell number. bovine factor Xa increased cell proliferation in a dose dependent manner. 10 mM Protein S induced greater cell proliferation than 50 mM bovine factor Xa.

[6] = FIG. 1, 10 nM coagulation factor

B1: antistasin (protein, UniProt P15358 18-136, looked up)
Antistasin: QGPFGPGCEEAGCPEGSACNIITDRCTCSGVRCRMHCPHGFQRSRYGCEFCKCRLEPMKATCDISECPEGMMCSRLTNKCDCKIDINCRKTCPNGLKRDKLGCEYCECRPKRKLIPRLS
notes: 119-amino acid protein isolated from the salivary glands of the Mexican leech Haementeria officinalis
Question: What does the source list for B1?
Answer: Mitogenic units of EC conditioned media ([1]; EXP 1): 0.74 mitogenic units; Mitogenic units of EC conditioned media ([1]; EXP 2): 0.42 mitogenic units; Mitogenic units of EC conditioned media ([1]; EXP 3): 0.70 mitogenic units; Mitogenic units of EC conditioned media ([1]; EXP 4): 0.36 mitogenic units; Release of mitogens from endothelial cells ([1]; antistasin 0.5-10 nM): blocks the release of mitogens; Effect on proliferation of 3T3 cells (3T3 cells): no significant effect; Relative mitogenic activity above control (smooth muscle cells [2]; 10 nM fXa and 5 nM antistasin): about 23%; Relative mitogenic activity above control (smooth muscle cells [2]; 10 nM fXa and 10-20 nM antistasin): about 2%; Relative mitogenic activity above control (smooth muscle cells [2]; 10 nM fXa with 40-50 nM antistasin): near zero; Inhibition of relative mitogenic activity of bovine factor X (smooth muscle cells [3]; 10 nM bovine factor X with 50 nM antistasin): not significantly inhibited; Inhibition of relative mitogenic activity of protein S (smooth muscle cells [3]; protein S with 50 nM antistasin): abolished

B2: platelet derived growth factor BB: recombinant platelet-derived growth factor-BB, a good mitogen for smooth muscle cells (protein, UniProt P01127 82-190, looked up)
Platelet-derived growth …: SLGSLTIAEPAMIAECKTRTEVFEISRRLIDRTNANFLVWPPCVEVQRCSGCCNNRNVQCRPTQVQLRPVQVRKIEIVRKKPIFKKATVTLEDHLACKCETVAAARPVT
modifications: homodimer
notes: recombinant platelet-derived growth factor-BB, a good mitogen for smooth muscle cells
Question: B2 was tested. Which “% relative mitogenic activity above control” value ([4]; FIG. 1, 0.1 nM PDGF-BB) did it give?
Answer: Its value is “about 63%”.

B3: protein S: human protein S, coagulation cascade factor (Enzyme Res. Labs) (protein, UniProt P07225 42-676, looked up)
Vitamin K-dependent protein S: ANSLLEETKQGNLERECIEELCNKEEAREVFENDPETDYFYPKYLVCLRSFQTGLFTAARQSTNAYPDLRSCVNAIPDQCSPLPCNEDGYMSCKDGKASFTCTCKPGWQGEKCEFDINECKDPSNINGGCSQICDNTPGSYHCSCKNGFVMLSNKKDCKDVDECSLKPSICGTAVCKNIPGDFECECPEGYRYNLKSKSCEDIDECSENMCAQLCVNYPGGYTCYCDGKKGFKLAQDQKSCEVVSVCLPLNLDTKYELLYLAEQFAGVVLYLKFRLPEISRFSAEFDFRTYDSEGVILYAESIDHSAWLLIALRGGKIEVQLKNEHTSKITTGGDVINNGLWNMVSVEELEHSISIKIAKEAVMDINKPGPLFKPENGLLETKVYFAGFPRKVESELIKPINPRLDGCIRSWNLMKQGASGIKEIIQEKQNKHCLVTVEKGSYYPGSGIAQFHIDYNNVSSAEGWHVNVTLNIRPSTGTGVMLALVSGNNTVPFAVSLVDSTSEKSQDILLSVENTVIYRIQALSLCSDQQSHLEFRVNRNNLELSTPLKIETISHEDLQRQLAVLDKAMKAKVATYLGGLPDVPFSATPVNAFYNGCMEVNINGVQLDLDEAISKHNDIRAHSCPSVWKKTKNS
Question: How did the “% relative mitogenic activity above control” value [4, 6] turn out when B3 was run?
Answer: Its value is “about 122%”.

Question: And the “SMC Number” value [5]?
Answer: The value was 6.5 × 10^5.

Question: What about the “CPM Incorporated (3H-thymidine)” value ([5]; 2 h pulse) of the same molecule?
Answer: The value was 30,074 ± 2,837 CPM.

B4: Factor IX: bovine coagulation factor IX (protein, UniProt P00741 26-462, looked up)
Coagulation factor IX: AECTVFLDRENATKILHRPKRYNSGKLEEFVRGNLERECKEEKCSFEEAREVFENTEKTTEFWKQYVDGDQCESNPCLNGGMCKDDINSYECWCQAGFEGTNCELDATCSIKNGRCKQFCKRDTDNKVVCSCTDGYRLAEDQKSCEPAVPFPCGRVSVSHISKKLTRAETIFSNTNYENSSEAEIIWDNVTQSNQSFDEFSRVVGGEDAERGQFPWQVLLHGEIAAFCGGSIVNEKWVVTAAHCIKPGVKITVVAGEHNTEKPEPTEQKRNVIRAIPYHSYNASINKYSHDIALLELDEPLELNSYVTPICIADRDYTNIFLKFGYGYVSGWGKVFNRGRSASILQYLKVPLVDRATCLRSTKFSIYSHMFCAGYHEGGKDSCQGDSGGPHVTEVEGTSFLTGIISWGEECAMKGKYGIYTKVSRYVNWIKEKTKLT
Question: With B4 as the molecule, how does the “% relative mitogenic activity above control” value [4, 6] read?
Answer: The value was “only weakly mitogenic”.
